Laboratory results as given in article PMC3094553.

Target: PF0699 (conserved hypothetical protein) (Pyrococcus furiosus) (UniProt Q8U2X9)
Assay: SAXS

How did the stoichiometry N turn out when “PF0699 (conserved hypothetical protein) (from UniProt Q8U2X9 1-139) (natural protein)” was run?
The stoichiometry N was 2.
